Results taken from US20210196796A1 (SYNTHEKINE, published 2021).
Substitutions are numbered along the chain they refer to. Names and notes keep the numbering of the source.

T1: orthogonal hCD122 receptor (hoRb), hCD122 with H133D and Y134F (human, UniProt P14784 27-550)
T1 sequence: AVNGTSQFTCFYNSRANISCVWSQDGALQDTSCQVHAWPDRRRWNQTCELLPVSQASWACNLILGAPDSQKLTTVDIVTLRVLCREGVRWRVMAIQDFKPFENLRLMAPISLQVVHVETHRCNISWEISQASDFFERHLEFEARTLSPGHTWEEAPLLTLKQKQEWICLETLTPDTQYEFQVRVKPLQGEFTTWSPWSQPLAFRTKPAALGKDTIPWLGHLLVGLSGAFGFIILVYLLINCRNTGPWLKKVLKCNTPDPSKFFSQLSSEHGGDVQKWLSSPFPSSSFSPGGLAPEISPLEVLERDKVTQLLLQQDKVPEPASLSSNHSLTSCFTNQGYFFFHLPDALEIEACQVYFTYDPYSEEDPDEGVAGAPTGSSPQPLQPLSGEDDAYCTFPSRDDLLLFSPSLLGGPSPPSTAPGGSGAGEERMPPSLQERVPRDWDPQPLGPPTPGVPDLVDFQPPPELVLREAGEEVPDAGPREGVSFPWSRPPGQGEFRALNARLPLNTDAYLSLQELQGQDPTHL

B1: SNVLKA (ligand)
chain: APTSSSTKKTQLQLSNLLVLLKAILNGINNYKNPKLTRMLTFKFYMPKKATELKHLQCLEEELKPLEEVLNLAQSKNFHLRPRDLISNINVIVLELKGSETTFMCEYADETATIVEFLNRWITFCQSIISTLT
B2: L18Q, SQVLKA (ligand)
chain: B1 chain with N16Q, L18Q
B3: L18K, SQVLKA (ligand)
chain: B1 chain with N16Q, L18K
B4: L18S, SQVLKA (ligand)
chain: B1 chain with N16Q, L18S
B5: L18G, SQVLKA (ligand)
chain: B1 chain with N16Q, L18G
B6: L18E, SQVLKA (ligand)
chain: B1 chain with N16Q, L18E
B7: L18V, SQVLKA (ligand)
chain: B1 chain with N16Q, L18V
B8: L18F, SQVLKA (ligand)
chain: B1 chain with N16Q, L18F
B9: T3C, SQVLKA (ligand)
chain: B1 chain with T3C, N16Q
B10: L18W, SQVLKA (ligand)
chain: B1 chain with N16Q, L18W
B11: L18M, SQVLKA (ligand)
chain: B1 chain with N16Q, L18M
B12: L18I, SQVLKA (ligand)
chain: B1 chain with N16Q, L18I

These binders were tested against T1, orthogonal hCD122 receptor (hoRb), … (assay: cell-based or functional assay).
For Relative Proliferation Fold Change 3F8 1:10 in this document: reference of the scale not given here.
For Relative Proliferation Fold Change 3F8 1:2 in this document: reference of the scale not given here.
For Relative Proliferation Fold Change 3F8 1:50 in this document: reference of the scale not given here.
For Relative Proliferation Fold Change NKL 1:10 in this document: reference of the scale not given here.
For Relative Proliferation Fold Change NKL 1:2 in this document: reference of the scale not given here.
For Relative Proliferation Fold Change NKL 1:50 in this document: reference of the scale not given here.

Row | Binder | 3F8 Ortho Proliferation Signal 1:2 [cts/min] | 3F8 Ortho Proliferation Signal 1:10 [cts/min] | 3F8 Ortho Proliferation Signal 1:50 [cts/min] | Relative Proliferation Fold Change 3F8 1:2 [fold] | Relative Proliferation Fold Change 3F8 1:10 [fold] | Relative Proliferation Fold Change 3F8 1:50 [fold]
1 | B1 | 31400 | 32700 | 19000 | 9.2 | 11.8 | 4.79
2 | B2 | 40800 | 57200 | 44700 | 111 | 80.8 | 47.2
3 | B3 | 45400 | 42800 | 20400 | 162 | 49.6 | 14.6
4 | B4 | 43300 | 48600 | 23600 | 185 | 89 | 41.9
5 | B5 | 37700 | 25900 | 9750 | 52.9 | 17 | 3.79
6 | B6 | 6090 | 2350 | 1980 | 9.99 | 0.93 | 0.77
7 | B7 | 36500 | 29500 | 9920 | 139 | 19.2 | 12
8 | B8 | 49800 | 40800 | 30000 | 54.8 | 16.8 | 11.8
9 | B9 | 33100 | 33700 | 14600 | 34.9 | 12.8 | 12
10 | B10 | 36800 | 32800 | 9570 | 138 | 43.1 | 12.7
11 | B11 | 42000 | 48500 | 37200 | 55 | 21.9 | 16.6
12 | B12 | 36900 | 37300 | 19400 | 81.2 | 29.8 | 11

Molecular target: T1, orthogonal hCD122 receptor (hoRb), …
Test: cell-based or functional assay
Remark: another data set of the same source

Row | Binder | NKL Ortho Proliferation Signal 1:2 | NKL Ortho Proliferation Signal 1:10 | NKL Ortho Proliferation Signal 1:50 | Relative Proliferation Fold Change NKL 1:2 [fold] | Relative Proliferation Fold Change NKL 1:10 [fold] | Relative Proliferation Fold Change NKL 1:50 [fold]
13 | B1 | 46800 | 39700 | 18300 | 2.94 | 2.19 | 1.09
14 | B2 | 47500 | 41200 | 21400 | 3.93 | 2.5 | 1.41
15 | B3 | 22200 | 20200 | 11500 | 1.56 | 1.21 | 0.76
16 | B4 | 27200 | 21500 | 11500 | 2.4 | 1.56 | 0.85
17 | B5 | 15400 | 13400 | 8640 | 1.05 | 0.83 | 0.57
18 | B6 | 8260 | 9060 | 8120 | 0.57 | 0.56 | 0.51
19 | B7 | 17800 | 14000 | 8670 | 1.36 | 0.96 | 0.62
20 | B8 | 48600 | 39400 | 19400 | 3.85 | 2.52 | 1.3
21 | B9 | 60600 | 70800 | 35300 | 4.54 | 4.16 | 2.06
22 | B10 | 18700 | 17000 | 10700 | 1.56 | 1.1 | 0.71
23 | B11 | 42700 | 43900 | 22100 | 3.7 | 2.72 | 1.55
24 | B12 | 23800 | 20500 | 11000 | 2.05 | 1.38 | 0.8
